Experimental data published in patent publication US20030064071A1.

Experiments:
DC-SIGN (human) [1] = target: DC-SIGN (human) (UniProt Q9NNX6); test: flow cytometry, mature DC day 9, LPS-matured (endogenous DC-SIGN)
DC-SIGN (human) [2] = target: DC-SIGN (human) (UniProt Q9NNX6); test: flow cytometry, mature DC day 9, TNFα-matured (endogenous DC-SIGN)
DC-SIGN (human) [3] = target: DC-SIGN (human) (UniProt Q9NNX6); test: flow cytometry, immature DC day 7 (endogenous DC-SIGN)
DC-SIGN (human) [4] = target: DC-SIGN (human) (UniProt Q9NNX6); test: flow cytometry, mature DC day 9, MCM/PGE2-matured (endogenous DC-SIGN)
DC-SIGN (human) [5] = target: DC-SIGN (human) (UniProt Q9NNX6); test: cell-based or functional assay

DC-SIGN (human), sequence (Q9NNX6 whole entry): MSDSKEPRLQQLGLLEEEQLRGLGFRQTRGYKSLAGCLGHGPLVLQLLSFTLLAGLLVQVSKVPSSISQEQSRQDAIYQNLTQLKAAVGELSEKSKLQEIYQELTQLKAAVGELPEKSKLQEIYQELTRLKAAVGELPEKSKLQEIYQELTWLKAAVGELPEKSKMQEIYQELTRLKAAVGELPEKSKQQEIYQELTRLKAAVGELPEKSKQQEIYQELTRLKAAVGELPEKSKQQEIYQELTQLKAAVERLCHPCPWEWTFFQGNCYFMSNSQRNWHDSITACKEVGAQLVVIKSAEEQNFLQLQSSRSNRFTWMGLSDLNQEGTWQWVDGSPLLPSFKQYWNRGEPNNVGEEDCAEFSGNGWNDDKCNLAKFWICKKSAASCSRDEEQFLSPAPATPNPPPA

Substance	mean fluorescence of staining (mean fluorescence) (DC-SIGN (human) [1])	mean fluorescence of staining (mean fluorescence) (DC-SIGN (human) [2])	mean fluorescence of staining (mean fluorescence) (DC-SIGN (human) [3])	mean fluorescence of staining (mean fluorescence) (DC-SIGN (human) [4])	luciferase activity (unactivated T cells, THP-SIGN cells relative to THP cells) (DC-SIGN (human) [5]) [fold]
AZN-D1 (antibody)	489	420	980	445	
HxB2 envelope (from UniProt P04578 33-856)					20
